Data reported in the supplement of paper PMC7877785.
± gives the uncertainty stated by the source.

Experiment: self-splicing fitness, log relative to wild type (ln ratio); higher = more splicing; Tetrahymena group I intron in knt gene, E. coli kanamycin selection, DiMSum; sequences stand for … in CUCUCU…GGAGGGAAAAGUUAUCAGGCAUGCACCUGGUAGCUAGUCUUUAAACCAAUAGAUUGCAUCGGUUUAAAAGGCAAGACCGUCAAAUUGCGGGAAAGGGGUCAACAGCCGUUCAGUACCAAGUCUCAGGGGAAACUUUGAGAUGGCCUUGCAAAGGGUAUGGUAAUAAGCUGACGGACAUGGUCCUAACCACGCAGCCAAGUCCUAAGUCAACAGAUCUUCUGUUGAUAUGGAUGCAGUUCACAGACUAAAUGUCGGUCGGGGAAGAUGUAUUCUUCUCAUAAGAUAUAGUCGGACCUCUCCUUAAUGGGAGCUAGCGGAUGAAGUGAUGCAACACUGGAGCCGCUGGGAACUAAUUUGUAUGCGAAAGUAUAUUGAUUAGUUUUGGAGUACUCGUGGUCG
Outline: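 Fitness was computed with DiMSum as the error-weighted combination of replicate fold changes, kanamycin versus none, each normalised to wild type. The library randomised all eight intron nucleotides of the P1ex region, with the intron placed in the knt kanamycin-resistance gene on pET-22b(+) in E. coli BL21(DE3). Six replicate transformations were grown overnight at 37°C or 30°C on LB agar with or without 25 μg/mL kanamycin, plus 100 μg/mL carbenicillin, 50 μM IPTG and 0.2% rhamnose. Pooled colonies were amplicon-sequenced on an Illumina HiSeq 2500.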

UCAGAGCAAUAUUACGAUGA
self-splicing fitness (ln) (30 °C): -0.825 ± 0.2
self-splicing fitness (ln) (37 °C): 0.109 ± 0.21

UACGAGCAAUAUUACGACUC
self-splicing fitness (ln) (30 °C): -2.51 ± 0.21
self-splicing fitness (ln) (37 °C): -2.31 ± 0.36

GUUGAGCAAUAUUACGGUUC
self-splicing fitness (ln) (30 °C): -3.63 ± 0.4
self-splicing fitness (ln) (37 °C): -1.58 ± 0.26

GUUCAGCAAUAUUACGUCGU
self-splicing fitness (ln) (30 °C): -0.64 ± 0.098
self-splicing fitness (ln) (37 °C): 0.241 ± 0.11

CGGUAGCAAUAUUACGGCAG
self-splicing fitness (ln) (30 °C): -0.164 ± 0.13
self-splicing fitness (ln) (37 °C): 0.767 ± 0.16

ACGUAGCAAUAUUACGACAC
self-splicing fitness (ln) (30 °C): -1.46 ± 0.21
self-splicing fitness (ln) (37 °C): -0.658 ± 0.18

UUGUAGCAAUAUUACGGUUG
self-splicing fitness (ln) (30 °C): -2.38 ± 0.12
self-splicing fitness (ln) (37 °C): -0.9 ± 0.12

ACGCAGCAAUAUUACGGGAG
self-splicing fitness (ln) (30 °C): -2.73 ± 0.11
self-splicing fitness (ln) (37 °C): -1.62 ± 0.11

AAGCAGCAAUAUUACGGGCG
self-splicing fitness (ln) (30 °C): -0.645 ± 0.065
self-splicing fitness (ln) (37 °C): -0.638 ± 0.099

GCGAAGCAAUAUUACGGGUU
self-splicing fitness (ln) (30 °C): -2.88 ± 0.1
self-splicing fitness (ln) (37 °C): -1.65 ± 0.099

UAACAGCAAUAUUACGCAUA
self-splicing fitness (ln) (30 °C): -0.955 ± 0.075
self-splicing fitness (ln) (37 °C): -0.0703 ± 0.069

AAUUAGCAAUAUUACGACAA
self-splicing fitness (ln) (30 °C): -1.79 ± 0.21
self-splicing fitness (ln) (37 °C): 0.209 ± 0.24

UCAAAGCAAUAUUACGACGU
self-splicing fitness (ln) (30 °C): -0.985 ± 0.063
self-splicing fitness (ln) (37 °C): 0.289 ± 0.069

CGGAAGCAAUAUUACGCAAG
self-splicing fitness (ln) (30 °C): -0.584 ± 0.18
self-splicing fitness (ln) (37 °C): -1.95 ± 0.43

GACAAGCAAUAUUACGCCCG
self-splicing fitness (ln) (30 °C): -1.26 ± 0.17
self-splicing fitness (ln) (37 °C): -0.702 ± 0.37

ACACAGCAAUAUUACGUGAC
self-splicing fitness (ln) (30 °C): -4.1 ± 0.13
self-splicing fitness (ln) (37 °C): -2.05 ± 0.11

UGGCAGCAAUAUUACGUGAC
self-splicing fitness (ln) (30 °C): -2.83 ± 0.31
self-splicing fitness (ln) (37 °C): -1.22 ± 0.25

AAGAAGCAAUAUUACGAUGG
self-splicing fitness (ln) (30 °C): -1.93 ± 0.14
self-splicing fitness (ln) (37 °C): -2 ± 0.22

UAAUAGCAAUAUUACGGUCC
self-splicing fitness (ln) (30 °C): -2.53 ± 0.33

AAGCAGCAAUAUUACGUAGC
self-splicing fitness (ln) (30 °C): -3.19 ± 0.15
self-splicing fitness (ln) (37 °C): -1.94 ± 0.16

AUAAAGCAAUAUUACGGUAC
self-splicing fitness (ln) (30 °C): -1.89 ± 0.11
self-splicing fitness (ln) (37 °C): -2.6 ± 0.17

ACUCAGCAAUAUUACGGGGA
self-splicing fitness (ln) (30 °C): -1.24 ± 0.074
self-splicing fitness (ln) (37 °C): -0.173 ± 0.082

UAAGAGCAAUAUUACGAGGC
self-splicing fitness (ln) (37 °C): -1.97 ± 0.41

AUGUAGCAAUAUUACGUACU
self-splicing fitness (ln) (30 °C): -0.0156 ± 0.06
self-splicing fitness (ln) (37 °C): -0.16 ± 0.073

AUUGAGCAAUAUUACGAAGG
self-splicing fitness (ln) (30 °C): -2.69 ± 0.36
self-splicing fitness (ln) (37 °C): -2.39 ± 0.3

AUAGAGCAAUAUUACGUGCG
self-splicing fitness (ln) (30 °C): -1.6 ± 0.11
self-splicing fitness (ln) (37 °C): -0.384 ± 0.11

UACCAGCAAUAUUACGGUAC
self-splicing fitness (ln) (30 °C): -3.72 ± 0.22
self-splicing fitness (ln) (37 °C): -2.04 ± 0.16

CCUUAGCAAUAUUACGAUCA
self-splicing fitness (ln) (37 °C): -2.51 ± 0.38

AUAAAGCAAUAUUACGCCUA
self-splicing fitness (ln) (30 °C): -0.422 ± 0.091
self-splicing fitness (ln) (37 °C): -0.286 ± 0.1

CUGGAGCAAUAUUACGGAGU
self-splicing fitness (ln) (30 °C): -2.37 ± 0.22

UUACAGCAAUAUUACGGACA
self-splicing fitness (ln) (30 °C): -1.02 ± 0.11
self-splicing fitness (ln) (37 °C): -0.885 ± 0.13

GUCCAGCAAUAUUACGAGUU
self-splicing fitness (ln) (30 °C): -1.98 ± 0.095
self-splicing fitness (ln) (37 °C): -1.26 ± 0.091

UGGGAGCAAUAUUACGUGUC
self-splicing fitness (ln) (30 °C): -2.08 ± 0.19
self-splicing fitness (ln) (37 °C): -2.59 ± 0.33

AGAAAGCAAUAUUACGAUUU
self-splicing fitness (ln) (30 °C): -0.00992 ± 0.078
self-splicing fitness (ln) (37 °C): 0.286 ± 0.11

CUUAAGCAAUAUUACGGAUC
self-splicing fitness (ln) (30 °C): -1.71 ± 0.23
self-splicing fitness (ln) (37 °C): -2.11 ± 0.44

UGGCAGCAAUAUUACGAAUG
self-splicing fitness (ln) (30 °C): -0.811 ± 0.061
self-splicing fitness (ln) (37 °C): 0.188 ± 0.079

UAUGAGCAAUAUUACGGUCG
self-splicing fitness (ln) (30 °C): -2.52 ± 0.12
self-splicing fitness (ln) (37 °C): -1.19 ± 0.12

AACCAGCAAUAUUACGGACU
self-splicing fitness (ln) (30 °C): -0.113 ± 0.061
self-splicing fitness (ln) (37 °C): 0.226 ± 0.082

ACUUAGCAAUAUUACGUUCC
self-splicing fitness (ln) (30 °C): -2.16 ± 0.31
self-splicing fitness (ln) (37 °C): -2.04 ± 0.44
